Results taken from patent US20230126796.
Where two headings read alike, the source gives them in different places.

T1: PAR4-B synthetic peptide
T1 chain: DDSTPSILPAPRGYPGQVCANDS

T2: PAR4-C synthetic peptide
T2 chain: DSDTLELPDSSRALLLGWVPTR

B1: cathepsin G (protein)
chain: IIGGRESRPHSRPYMAYLQIQSPAGQSRCGGFLVREDFVLTAAHCWGSNINVTLGAHNIQRRENTQQHITARRAIRHPQYNQRTIQNDIMLLQLSRRVRRNRNVNPVALPRAQEGLRPGTLCTVAGWGRVSMRRGTDTLREVQLRVQRDRQCLRIFGSYDPRRQICVGDRRERKAAFKGDSGGPLLCNNVAHGIVSYGKSSGVPPEVFTRVSSFLPWIRTTMRS

What was measured:
[1] = tested on: PAR4-B synthetic peptide
[2] = tested on: PAR4-C synthetic peptide
[3] = biological target: T1, PAR4-B synthetic peptide
[4] = biological target: T2, PAR4-C synthetic peptide

Row | Molecule | proteolysis of the peptide, LC-MS/MS [1] | proteolysis of the peptide, LC-MS/MS [2] | proteolysis of the peptide, LC-MS/MS [3] | proteolysis of the peptide, LC-MS/MS [4]
1 | alpha-thrombin | PAR4-B was cleaved by thrombin between amino acids Arg47 and Gly48 | thrombin failed to cleave PAR4-C | – | –
2 | B1 | – | – | little cleavage was observed with CatG | CatG cleavage generated several fragments, including DSDTLELPSS
